The values that follow come from patent publication US20250027068.

B1: PRT-659 (protein)
chain: MQITSVWTKGVTPLTPEQFRYNNEDVIHAPYLAHQGWYDITKAFDGKDNLLCGAATAGNMLHWWFDQNKTEIEAYLSKHPEKQKIIFNNQELFDLREAINTKDDQKDSKLFNYFREKAFPNLSARQLGVMPDLVLDMFINGYYLNVFKTQSTDVNRPYQDKDKRGGIFDAVFTRGDQTTLLTARHDLKNKGLNDISTIIKQELTEGRALALSHTYANVSISHVINLWGADFNAEGNLEAIYVTDSDANASIGMKKYFVGINAHGHVAISAKKIEGENIGAQVLGLFTLSSGKDIWQKLSLEHHHHHH
B2: PRT-640 (protein)
chain: MQITSVWTKGVTPLTPEQFRYNNEDVIHAPYLAHQGWYDITKTFNGKDNLLCGAATAGNMLHWWFDQNKTEIEAYLSKHPEKQKIIFNNQELFDLKAAIDTKDSQTNSQLFNYFRDKAFPNLSARQLGVMPDLVLDMFINGYYLNVFKTQSTDVNRPYQDKDKRGGIFDAVFTRGDQTTLLTARHDLKNKGLNDISTIIKQELTEGRALALSHTYANVSISHVINLWGADFNAEGNLEAIYVTDSDADEKIGMKKYFVGINAHGHVAISAKKIEGENIGAQVLGLFTLSSGKDIWQKLSLEHHHHHH
B3: PRT-634 (protein)
chain: MQITSVWTKGVTPLTPEQFRYNNYDVIHAPYKPNQGWYDITKAFDGKDNLLCGAATAGNMLHWWFDQNKTEIEAYLSKHPEKQKIIFNNQELFDLKAAIDTKDSQTNSQLFNYFRDKAFPNLSARQLGVMPDLVLDMFINGYYLNVFKTQSTDVNRPYQDKDKRGGIFDAVFTRGDQTTLLTARHDLKNKGLNDISTIIKQELTEGKALALSHTYANVSISHVINLWGADFNAEGNLEAIYVTDSDANASIGMKKYFVGINAHGHVAISAKKIEGENIGAQVLGLFTLSSGKDIWQKLSLEHHHHHH
B4: PRT-632 (protein)
chain: MQITSVWTYGVTPLTPEQFRYNNYEVIHAPYKEGQGWYDITKAFDGKDNLLCGAATAGNMLHWWFDQNKTEIEAYLSKHPEKQKIIFNNQELFDLKAAIDTKDSQTNSQLFNYFRDKAFPNLSARQLGVMPDLVLDMFINGYYLNVFKTQSTDVNRPYQDKDKRGGIFDAVFTRGDQTTLLTARHDLKNKGLNDISTIIKQELTEGRALALSHTYANVSISHVINLWGADFNAEGNLEAIYVTDSDANASIGMKKYFVGINAHGHVAISAKKIEGENIGAQVLGLFTLSSGKDIWQKLSLEHHHHHH
B5: PRT-615 (protein)
chain: MQITSVWTKGVTPLTPEQFRYNNEDVIHAPYLAHQGWYDITKAFDGKDNLLCGAATAGNMLHWWFDQNKTEIEAYLSKYPEKQKIIFNNQELFDLRAAINTKDSQTNSQLFNYFRDKAFPNLSARQLGVMPDLVLDMFINGYYLNVFKTQSTDVNRPYQDKDKRGGIFDAVFNRGDQTTLLTARHDLKNKGLNDISTIIKQELSSGRALALSHTYANVSISHVINLWGADFNAEGNLEAIYVTDSDANSNIGMKKYKVGINAHGHVAISAKKIEGENIGAQVLGLFTLSSGKDIWQKLSLEHHHHHH
B6: PRT-608 (protein)
chain: MQITSVWTKGVTPLTPEQFRYNNEDVIHAPYLAHQGWYDITKAFDGKDNLLCGAATAGNMLHWWFDQNKTEIEAYLSKHPEKQKIIFNNQELFDLKAAIDTKDSQTNSQLFNYFRDKAFPNLSARQLGVMPDLVLDMFINGYYLNVFKTQSTDVNRPYQDKDKRGGIFDAVFTRGDQTTLLTARHDLKNKGLNDISTIIKQELTEGRALALSHTYANVSISHVINLWGADFNAEGNLEAIYVTDSDADEKIGMKKYFVGINAHGHVAISAKKIEGENIGAQVLGLFTLSSGKDIWQKLSLEHHHHHH
B7: PRT-630 (protein)
chain: MQITSVWTKGVTPLTPEQFRYNNEDVIHAPYLAHQGWYDITKAFDGKDNLLCGAATAGNMLHWWFDQNKEEIENYLKKYPEKQKIIFNNQELFDLKAAIDTKDSQTNSQLFNYFRDKAFPNLSARQLGVMPDLVLDMFINGYYLNVFKTQSTDVNRPYQDKDKRGGIFDAVFTRGDQTTLLTARHDLKNKGLNDISTIIKQELTEGRALALSHTYANVSISHVINLWGADFNAEGNLEAIYVTDSDANASIGMKKYFVGINAHGHVAISAKKIEGENIGAQVLGLFTLSSGQEIWEQLSLEHHHHHH
B8: PRT-665 (protein)
chain: MQITSVWTKGVTPPTPEQFRYNNEDVIHAPYLAHQGWYDITKAFDGKDNLLCGAATAGNMLHWWFDQNKTEIEAYLSKYPEKQKIIFNNQELFDLRAAINTKDSQTNSQLFNYFRDKAFPNLSARQLGVMPDLVLDMFINGYYLNVFKTQSTDVNRPYQDKDKRGGIFDAVFTRGDQTTLLTARHDLSNKGLNDISTIIKQELTEGRALALSHTYANVSISHVINLWGADFNAEGNLEAIYVTDSDSNASIGMKKYYVGINASGHVAISAKKIEGEVIGAQVLGLFTLSSGKEIWQKLSLEHHHHHH
B9: PRT-563 (protein)
chain: MANQEIRYSEATPSHITSVWTKGVTPPTQFIQNEDVLHAPYIANQGWYDITKTFNGKDDLLCGAATAGNMLHWWFDQNKTQIENYLKKHPEKQKINFNGEQMFDVKEAIDTKDSQTDSALFSYFKDKAFPYLSTKHLGVFPDHVIDMFINGYRLSLTNHGPTPVKRQTKDPRGGIFDAVFTRGDQSKLLTARHDFKEKTLNEISQLIKQELTEGKALGLSHTYANVRINHVINLWGADFNAEGNLEAIYVTDSDSNASIGMKKYYVGVNAAGKVAISAKEIEGDNIGAQVLGLFTLSTGQDIWQQTNLEHHHHHH
B10: PRT-691 (protein)
chain: MQITTVWTKGVTPPTPEQFRYNNEDVIHAPYLPNQGWYDITKTFNGKDNLLCGAATAGNMLHWWFDQNKTEIEAYLSKYPEKQKIIFNNQELFDLRAAINTKDSQTNSQLFNYFRDKAFPNLSARQLGVMPDLVLDMFINGYYLNVFKTQSTDVNRPYQDRDKRGGIFDAVFNRGDQTTLLTARHDLKNKTLNDISTLIKQELSSGKALALSHTYANVSISHVINLWGADFNAEGNLEAIYVTDSDANASIGMKKYYVGVNAHGKVAISAKKIEGENIGAQVLGLFTLSSGKDIWQKLSLEHHHHHH
B11: PRT-67 (protein)
chain: MANQEIRYSEVTPYHVTSVWTKGVTPPANFTQGEDVFHAPYVANQGWYDINKTFNGKDDLLCGAATAGNMLHWWFDQNKDQIKRYLEEHPEKQKINFNGEQMFDVKEAIDTKNHQLDSKLFEYFKEKAFPYLSTKHLGVFPDHVIDMFINGYRLSLTNHGPTPVKEGSKDPRGGIFDAVFTRGDQSKLLTSRHDFKEKNLKEISDLIKKELTEGKALGLSHTYANVRINHVINLWGADFDSNGNLKAIYVTDSDSNASIGMKKYFVGVNSAGKVAISAKEIKEDNIGAQVLGLFTLSTGQDSWNQTN
B12: PRT-68 (protein)
chain: MANQEIRYSEVTPYHVTSVWTKGVTPPANFTQGEDVFHAPYVANQGWYDITKTFNGKDDLLCGAATAGNMLHWWFDQNKDQIKRYLEEHPEKQKINFNGEQMFDVKEAIDTKNHQLDSKLFEYFKEKAFPYLSTKHLGVFPDHVIDMFINGYRLSLTNHGPTPVKEGSKDPRGGIFDDVFTRGDQSKLLTSRHDFKEKNLKEISDLIKKELTEGKALGLSHTYANVRINHVINLWGADFDSNGNLKAIYVTDSDSNASIGMKKYFVGVNSAGKVAISAKEIKEDNIGAQVLGLFTLSTGQDSWNQTN
B13: PRT-69 (protein)
chain: MANQEIRYSEVTPYHVTSVWTKGVTPPANFTQGEDVFHAPYVANQGWYDITKTFNGKDDLLCGAATAGNMLHWWFDQNKDQIKRYLEEHPEKQKINFNGEQMFDVKEAIDTKNDQLDSKLFEYFKEKAFPYLSTKHLGVFPDHVIDMFINGYRLSLTNHGPTPVKEGSKDPRGGIFDAVFTRGDQSKLLTSRHDFKEKNLKEISDLIKKELTEGKALGLSHTYANVRINHVINLWGADFDSNGNLKAIYVTDSDSNASIGMKKYFVGVNSAGKVAISAKEIKEDNIGAQVLGLFTLSTGQDSWNQTN

The target of the series is pooled human IgG.
B1 displayed an Enzyme Activity Endpoint Assay (purified): Fab′2 of 946 ng/µL, an Enzyme Activity Endpoint Assay (purified): Fc of 499 ng/µL, an Enzyme Activity Endpoint Assay (purified): IgG of 0 ng/µL and an Enzyme Activity Endpoint Assay (purified): scIgG of 0 ng/µL.
Take B2: the Enzyme Activity Endpoint Assay (purified): Fab′2 came out at 951 ng/µL, the Enzyme Activity Endpoint Assay (purified): Fc turned out to be 507 ng/µL, the Enzyme Activity Endpoint Assay (purified): IgG came out at 0 ng/µL and the Enzyme Activity Endpoint Assay (purified): scIgG worked out at 0 ng/µL.
With B3, the Enzyme Activity Endpoint Assay (purified): Fab′2 came to 755 ng/µL, the Enzyme Activity Endpoint Assay (purified): Fc turned out to be 394 ng/µL, the Enzyme Activity Endpoint Assay (purified): IgG was 0 ng/µL and the Enzyme Activity Endpoint Assay (purified): scIgG worked out at 0 ng/µL.
Protein B4 came in with an Enzyme Activity Endpoint Assay (purified): Fab′2 of 703 ng/µL, an Enzyme Activity Endpoint Assay (purified): Fc of 399 ng/µL, an Enzyme Activity Endpoint Assay (purified): IgG of 0 ng/µL and an Enzyme Activity Endpoint Assay (purified): scIgG of 0 ng/µL.
In the case of B5, the Enzyme Activity Endpoint Assay (purified): Fab′2 was found to be 778 ng/µL, the Enzyme Activity Endpoint Assay (purified): Fc came to 441 ng/µL, the Enzyme Activity Endpoint Assay (purified): IgG turned out to be 0 ng/µL and the Enzyme Activity Endpoint Assay (purified): scIgG stood at 0 ng/µL.
As to B6, the Enzyme Activity Endpoint Assay (purified): Fab′2 was 863 ng/µL, the Enzyme Activity Endpoint Assay (purified): Fc turned out to be 484 ng/µL, the Enzyme Activity Endpoint Assay (purified): IgG turned out to be 0 ng/µL and the Enzyme Activity Endpoint Assay (purified): scIgG amounted to 0 ng/µL.
Turning to B7, the Enzyme Activity Endpoint Assay (purified): Fab′2 came out at 850 ng/µL, the Enzyme Activity Endpoint Assay (purified): Fc was 464 ng/µL, the Enzyme Activity Endpoint Assay (purified): IgG is 0 ng/µL and the Enzyme Activity Endpoint Assay (purified): scIgG is 0 ng/µL.
Take B8: the Enzyme Activity Endpoint Assay (purified): Fab′2 worked out at 816 ng/µL, the Enzyme Activity Endpoint Assay (purified): Fc worked out at 414 ng/µL, the Enzyme Activity Endpoint Assay (purified): IgG amounted to 63 ng/µL and the Enzyme Activity Endpoint Assay (purified): scIgG was 109 ng/µL.
On to B9, for which the Enzyme Activity Endpoint Assay (purified): Fab′2 is 816 ng/µL, the Enzyme Activity Endpoint Assay (purified): Fc is 389 ng/µL, the Enzyme Activity Endpoint Assay (purified): IgG was found to be 0 ng/µL and the Enzyme Activity Endpoint Assay (purified): scIgG worked out at 0 ng/µL.
B10 came in with an Enzyme Activity Endpoint Assay (purified): Fab′2 of 184 ng/µL, an Enzyme Activity Endpoint Assay (purified): Fc of 337 ng/µL, an Enzyme Activity Endpoint Assay (purified): IgG of 110 ng/µL and an Enzyme Activity Endpoint Assay (purified): scIgG of 682 ng/µL.
Taken in the same sequence, the figures for B11 were 10 ng/µL, 78 ng/µL, 23 ng/µL and 61 ng/µL.
Taken in the same sequence, the figures for B12 were 51 ng/µL, 133 ng/µL, 16 ng/µL and 16 ng/µL.
B13 yielded an Enzyme Activity Endpoint Assay (purified): Fab′2 of 45 ng/µL, an Enzyme Activity Endpoint Assay (purified): Fc of 121 ng/µL, an Enzyme Activity Endpoint Assay (purified): IgG of 14 ng/µL and an Enzyme Activity Endpoint Assay (purified): scIgG of 14 ng/µL.
